Literature values in paper PMC9887155, “Kinetics of cone specific G-protein signaling in avian photoreceptor cells” (Frontiers in Molecular Neuroscience, 2023).
pKd: −log10 of the molar value.

Target: Gtα (Bos taurus) (UniProt P04695)
Assay: SPR

Sequence of Gtα (Bos taurus) (P04695 2-350): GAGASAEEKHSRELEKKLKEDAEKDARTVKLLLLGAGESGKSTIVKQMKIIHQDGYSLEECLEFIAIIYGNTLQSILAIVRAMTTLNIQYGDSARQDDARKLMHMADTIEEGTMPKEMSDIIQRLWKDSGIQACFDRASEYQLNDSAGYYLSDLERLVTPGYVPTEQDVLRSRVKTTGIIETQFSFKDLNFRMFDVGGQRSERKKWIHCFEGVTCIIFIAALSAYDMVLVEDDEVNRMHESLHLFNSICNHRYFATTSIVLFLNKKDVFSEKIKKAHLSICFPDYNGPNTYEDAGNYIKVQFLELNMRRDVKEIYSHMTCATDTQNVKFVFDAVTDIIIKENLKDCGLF
Sequence of rhodopsin (dark-adapted) (P02699 whole entry): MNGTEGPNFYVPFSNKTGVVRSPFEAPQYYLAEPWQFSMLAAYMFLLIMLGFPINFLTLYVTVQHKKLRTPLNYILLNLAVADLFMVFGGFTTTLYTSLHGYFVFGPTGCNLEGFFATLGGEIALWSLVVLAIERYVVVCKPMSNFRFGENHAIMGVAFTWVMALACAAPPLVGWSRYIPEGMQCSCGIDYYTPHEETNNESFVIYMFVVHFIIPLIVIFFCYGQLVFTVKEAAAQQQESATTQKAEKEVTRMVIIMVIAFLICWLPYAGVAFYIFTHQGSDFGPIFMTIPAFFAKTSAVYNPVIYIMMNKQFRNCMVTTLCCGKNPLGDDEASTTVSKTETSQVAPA

## rhodopsin (dark-adapted) (from UniProt P02699)
  pKd: 6.44
